Tests used:
[1] = target: Rous sarcoma virus integrase (1-286) R244A (Rous sarcoma virus (Prague A)); assay: SEC
[2] = target: Rous sarcoma virus integrase (1-286) R244E (Rous sarcoma virus (Prague A)); assay: SEC
[3] = target: Rous sarcoma virus integrase (1-286) Y246A (Rous sarcoma virus (Prague A)); assay: SEC
[4] = target: Rous sarcoma virus integrase, wt IN (1-278) (Rous sarcoma virus (Prague A)); assay: cryo-EM structure
[5] = target: Rous sarcoma virus integrase, wt full-length IN (1-286) (Rous sarcoma virus (Prague A)); assay: SEC

Rous sarcoma virus integrase (1-286) R244A (enzyme)
stoichiometry N [1]: 2

Rous sarcoma virus integrase (1-286) R244E (enzyme)
stoichiometry N [2]: 2

Rous sarcoma virus integrase (1-286) Y246A (enzyme)
stoichiometry N [3]: 2

Rous sarcoma virus integrase, wt IN (1-278) (enzyme)
stoichiometry N [4]: 8

Rous sarcoma virus integrase, wt full-length IN (1-286) (enzyme)
stoichiometry N [5]: 2
